Changes are numbered by the printed parent chain. Numbers in names are those of the source. One block for each binder: values may come before it.
Key:
TWEAK = biological target: T1, TWEAK (human, UniProt O43508 94-249, limits assumed); assay: SPR (Biacore), TWEAK amine-coupled on C1 chip, bispecific antibody as analyte, 1:1 Langmuir
T1 construct: The method paragraph says only 'TWEAK'; also called human TWEAK; TNF-related weak inducer of apoptosis
T1 sequence (looked up): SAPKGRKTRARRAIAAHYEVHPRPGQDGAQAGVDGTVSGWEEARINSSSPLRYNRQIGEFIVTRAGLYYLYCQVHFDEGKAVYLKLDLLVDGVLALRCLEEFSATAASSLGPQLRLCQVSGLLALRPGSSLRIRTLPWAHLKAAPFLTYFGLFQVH
Method: Around 100 RU of TWEAK was immobilized on the C1 chip surface at pH 5.0 using an amine coupling kit supplied by the GE Healthcare. The sample and system buffer was PBS-T (10 mM phosphate buffered saline including 0.05% Tween 20) pH 7.4. Association was measured by injection the bispecific antibody in various concentrations in solution for 3 min at a flow of 30 μl/min starting with 50 nM in 1:1 serial dilutions. The dissociation phase was monitored for up to 10 min and triggered by switching from the sample solution to running buffer. The surface was regenerated three times by 30 sec wash with a 3 M MgCl2 solution at a flow rate of 30 μl/min. Bulk refractive index differences were corrected by subtracting the response obtained from a blank-coupled surface. Blank injections are also subtracted (=double referencing). For calculation of KD and other kinetic parameters, the Langmuir 1:1 model was used.
(§1) Binding of the multispecific antibodies to their respective target antigens, i.e. IL17 and TWEAK, was assessed by Biacore® as described in the general methods section.

human IL17 [1] = biological target: T2, human IL17 (human, UniProt Q16552 24-155); assay: SPR (Biacore), bispecific antibody captured by anti-human F(ab')2, human IL17 as analyte, 1:1 Langmuir, apparent KD
T2 construct: for that reason an apparent KD is reported; also called IL17-A
T2 sequence (looked up): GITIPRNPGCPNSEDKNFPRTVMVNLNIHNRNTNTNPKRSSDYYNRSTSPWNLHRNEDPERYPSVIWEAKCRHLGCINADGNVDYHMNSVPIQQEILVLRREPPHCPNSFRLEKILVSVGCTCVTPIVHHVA
Method: (§2) Around 6000 resonance units (RU) of the capturing system (15 μg/ml goat anti human F(ab′)2; Order Code: 28958325; GE Healthcare Bio-Sciences AB, Schweden) were coupled on a CMS chip at pH 5.0 by using an amine coupling kit supplied by the GE Healthcare. The sample and system buffer was PBS-T (10 mM phosphate buffered saline including 0.05% Tween 20) pH 7.4. The bispecific antibody was captured by injecting a 50 nM solution for 90 sec at a flow of 10 μl/min. Association was measured by injection human IL17 in various concentrations in solution for 3 min at a flow of 30 μl/min starting with 50 nM in 1:1 serial dilutions. The dissociation phase was monitored for up to 10 min and triggered by switching from the sample solution to running buffer. The surface was regenerated twice by 60 sec wash with a 10 mM glycine pH 2.1 solution at a flow rate of 30 μl/min. Bulk refractive index differences were corrected by subtracting the response obtained from a goat anti human F(ab′)2 surface. Blank injections are also subtracted (=double referencing). For calculation of apparent KD and other kinetic parameters, the Langmuir 1:1 model was used.
as §1

human IL17 [2] = biological target: T2, human IL17; assay: SPR (Biacore), bispecific antibody captured by anti-human F(ab')2, human IL17 as analyte, 1:1 Langmuir
Method: as §2, §1

B1: TweakIL17-0129 (bispecific antibody, human IgG4 S228P, kappa)
light 1: DIVMTQSPLSLPVTPGEPASISCRSSQSLVHSNGDTYFHWYLQKPGQSPQLLIYKVSNRFSGVPDRFSGSGSGTDFTLKISRVEAEDVGVYYCSQTTHAPFTFGQGTKLEIKRTVAAPSVFIFPPSDEKLKSGTASVVCLLNNFYPREAKVQWKVDNALQSGNSQESVTEQDSKDSTYSLSSTLTLSKADYEKHKVYACEVTHQGLSSPVTKSFNRGEC
heavy 1: EVQLVESGGGLVQPGGSLRLSCAASGFSLDSYGVHWVRQATGKGLEWVSVIWSDGTTTYNSALKSRFTISRENAKNSLYLQMNSLRAGDTAVYYCARDTHYRLYYYAMDYWGQGTTVTVSSASTKGPSVFPLAPCSRSTSESTAALGCLVEDYFPEPVTVSWNSGALTSGVHTFPAVLQSSGLYSLSSVVTVPSSSLGTKTYTCNVDHKPSNTKVDKRVESKYGPPCPPCPAPEFEGGPSVFLFPPKPKDTLMISRTPEVTCVVVDVSQEDPEVQFNWYVDGVEVHNAKTKPREEQFNSTYRVVSVLTVLHQDWLNGKEYKCKVSNKGLPSSIEKTISKAKGQPREPQVCTLPPSQEEMTKNQVSLSCAVKGFYPSDIAVEWESNGQPENNYKTTPPVLDSDGSFFLVSRLTVDKSRWQEGNVFSCSVMHEALHNHYTQKSLSLSLGK
light 2: DIQMTQSPSSVSASVGDRVTITCQASQNIYSNLAWYQQKPGKAPKLLIYTASYLASGVPSRFSGSGSGTDYTLTISSLQPEDFATYYCQTAYYNSRPDTVAFGGGTKVEIKSSASTKGPSVFPLAPCSRSTSESTAALGCLVKDYFPEPVTVSWNSGALTSGVHTFPAVLQSSGLYSLSSVVTVPSSSLGTKTYTCNVDHKPSNTKVDKRVESKYG
heavy 2: QVQLVQSGAEVKKPGSSVKVSCKASGFDFSTYYMSWVRQAPGQGLEWMGTVYVRQGTTYYASWLNGRVTITADESTSTAYMELSSLRSEDTAVYYCARGGYNYDDAFVIWGQGTLVTVSSASVAAPSVFIFPPSDEQLKSGTASVVCLLNNFYPREAKVQWKVDNALQSGNSQESVTEQDSKDSTYSLSSTLTLSKADYEKHKVYACEVTHQGLSSPVTKSFNRGECPPCPPCPAPEFEGGPSVFLFPPKPKDTLMISRTPEVTCVVVDVSQEDPEVQFNWYVDGVEVHNAKTKPREEQFNSTYRVVSVLTVLHQDWLNGKEYKCKVSNKGLPSSIEKTISKAKGQPREPQVYTLPPCQEEMTKNQVSLWCLVKGFYPSDIAVEWESNGQPENNYKTTPPVLDSDGSFFLYSRLTVDKSRWQEGNVFSCSVMHEALHNHYTQKSLSLSLGK
notes: CrossMAb CH1-CL, knob-into-hole with S354C/Y349C
Kd (TWEAK): < 100 pM | koff (TWEAK): 2.64e-05 s⁻¹ | kon (TWEAK): 707000 M⁻¹ s⁻¹ | Kd (human IL17 [1]): < 100 pM | koff (human IL17 [2]): 0.000204 s⁻¹ | kon (human IL17 [2]): 1.09e+07 M⁻¹ s⁻¹

B3: TweakIL17-0049 (bispecific antibody, human IgG4 S228P, kappa)
light 1: B1 light 1 with K129Q
heavy 1: B1 heavy 1 with E151K
light 2: B1 light 2
heavy 2: B1 heavy 2
notes: also called TweakIL17-0049 (control)
Kd (TWEAK): < 100 pM | koff (TWEAK): 4.82e-05 s⁻¹ | kon (TWEAK): 1.27e+06 M⁻¹ s⁻¹ | Kd (human IL17 [1]): < 100 pM | koff (human IL17 [2]): 0.000123 s⁻¹ | kon (human IL17 [2]): 1.34e+06 M⁻¹ s⁻¹

The next lines start with the values.

Kd (TWEAK): < 100 pM | koff (TWEAK): 4.79e-05 s⁻¹ | kon (TWEAK): 1.17e+06 M⁻¹ s⁻¹ | Kd (human IL17 [1]): < 100 pM | koff (human IL17 [2]): 0.00013 s⁻¹ | kon (human IL17 [2]): 1.39e+06 M⁻¹ s⁻¹
B2: TweakIL17-0132 (bispecific antibody, human IgG4 S228P, kappa)
light 1: B1 light 1 with E128K, K129R
heavy 1: B1 heavy 1 with K217E
light 2: B1 light 2
heavy 2: B1 heavy 2
notes: as for B1

Kd (TWEAK): < 100 pM | koff (TWEAK): 3e-05 s⁻¹ | kon (TWEAK): 870000 M⁻¹ s⁻¹ | Kd (human IL17 [1]): < 100 pM | koff (human IL17 [2]): 0.000208 s⁻¹ | kon (human IL17 [2]): 1.1e+07 M⁻¹ s⁻¹
B4: TweakIL17-0134 (bispecific antibody, human IgG4 S228P, kappa)
light 1: B1 light 1
heavy 1: B1 heavy 1
light 2: B1 light 2
heavy 2: B1 heavy 2 with Q137E
notes: as for B1

Kd (TWEAK): < 100 pM | koff (TWEAK): 2.83e-05 s⁻¹ | kon (TWEAK): 859000 M⁻¹ s⁻¹ | Kd (human IL17 [1]): < 100 pM | koff (human IL17 [2]): 0.000194 s⁻¹ | kon (human IL17 [2]): 1.04e+07 M⁻¹ s⁻¹
B5: TweakIL17-0130 (bispecific antibody, human IgG4 S228P, kappa)
light 1: B1 light 1 with E128K, K129Q
heavy 1: B1 heavy 1 with E151K, K217E
light 2: B1 light 2
heavy 2: B1 heavy 2
notes: as for B1
